“Also recorded” adds a separate entry of the source.
Columns and labels:
[1] = tested on: ED1+ and ED2+ synovial macrophages; experiment: Synovial macrophage infiltration (ED1/ED2 immunohistochemistry) in knees of rats with mBSA antigen-induced arthritis; type: in vivo, rat
Description: Experiments were performed using a rat model for RA as published by Chandruputla et al. (BioMed Int, 2015) to show the effects of recombinant human alkaline phosphatase (hRESCAP) on RA. hRESCAP was compared with MTX used as a positive control. The antigen-induced rat model uses two subcutaneous immunizations with a mixture of methylated bovine serum albumin (mBSA), CFA (complete Freund's adjuvant antigen) and CBP (custom Bordetella pertussis antigen) and intra-articular injections of mBSA on one side knee and saline (negative control) on the counter knee. Immunohistochemical (IHC) analysis specifically focussed on infiltration with macrophages and knee swelling is followed over time after therapeutic treatment with MTX, or hRESCAP.
In the rat model, RA is induced in the right knee (RA knee), the contralateral left knee serves as a internal control (control knee). The model allows various options for therapeutic interventions, either before intra-articular injections or during boosts injections with mBSA. Two hours prior to AP administration, rats received a dose of levamisole (50 mg/kg, s.c.). For comparison, arthritic rats received treatment with methotrexate (1 mg/kg, i.p.).
At the end of the experiment, rats were sacrificed and knees were decalcified and processed for IHC analysis of synovial macrophage infiltration, including 2 rat macrophage antibodies; ED1 (homolog of human CD68) and ED2 (homolog of human CD163, a proposed marker for human M2 anti-inflammatory macrophages). IHC analysis of ED1 and ED2 macrophages was performed in multiple quadrants of synovial tissue, as described by Chandruputla et al (BioMed Int, 2015). Macrophage counting included synovial lining layer (SL 1-10) and synovial sublining layers (SL 1-20).
All rats (except healthy) were immunized and arthritis was induced via 1× or 4× intra-articular (i.a) mBSA injections, 4 or 5 days apart in the arthritic (right) knee, the contralateral (left, non-arthritic) knee serving as control knee. For therapeutic interventions, AP (human recombinant placenta AP, TNO, Zeist, The Netherlands) was administered subcutaneously (s.c.) at a dose of 700 U/kg (≈200 μg), MTX (VU University Medical Centers' Pharmacy) was administered intra-peritoneal (i.p.) at two dosages: 0.3 mg/kg (low dose) and 1.0 mg/kg (high dose). The rats were divided in 8 groups, based on different treatments and treatment schedules. In a prophylactic setting, two rats received AP twice prior to intra-articular (i.a.) arthritis induction and four rats received AP twice prior to intra-articular and 4× PBS in between i.a. injections. In the treatment groups, arthritic rats were administered AP twice or 4× after arthritis induction, either as standalone therapy or in combination with low or high dose MTX. Control rats received 500 μL of PBS (i.p.). […] At the end of study, all rats were sacrificed and tissues were excised for further processing and various analyses.
The arthritic and contralateral knees from all rats were dissected in toto and fixed for 7 days at 4° C. in 10% freshly made paraformaldehyde in PBS with 2% sucrose (pH=7.3) prior to decalcification in osteosoft (101728, Merck, Germany) for ˜2.5 weeks at room temperature. Thereafter, knees were embedded in paraffin. Sections of 5 μm were cut through the centre of the joint in longitudinal direction and stained with haematoxylin and eosin (HE) to assess the degree of inflammation in synovial tissue. Liver and spleen sections from all rats were dissected and fixed in 4% paraformaldehyde for 24 h before embedding in paraffin. Sections of 5 μm were cut and stained initially with HE and then for macrophages Staining for macrophages with ED1 (homologous to human CD68), and ED2 (homologous to human CD163, a marker for M2 anti-inflammatory macrophages), or isotype control antibody was performed. Images were captured using a Leica 4000B microscope and Leica digital camera DC500 (Microsystems B. V. Rijswijk, The Netherlands). […]

[2] = 4x AP, 60 min post tracer injection
[3] = arthritic rats, 60 min after tracer
[4] = 2× AP administration followed by 4× PBS, p<0.01
[5] = prophylactic AP treatment, 2× AP before intra-articular antigen injection
[6] = prophylactic: 2× AP (700 U/kg) prior to intra-articular mBSA injection, p<0.01

B1: AP: human recombinant placenta alkaline phosphatase (hRESCAP; TNO, Zeist), an ectophosphatase (protein, UniProt P05187 23-506, looked up)
Alkaline phosphatase, …: IIPVEEENPDFWNREAAEALGAAKKLQPAQTAAKNLIIFLGDGMGVSTVTAARILKGQKKDKLGPEIPLAMDRFPYVALSKTYNVDKHVPDSGATATAYLCGVKGNFQTIGLSAAARFNQCNTTRGNEVISVMNRAKKAGKSVGVVTTTRVQHASPAGTYAHTVNRNWYSDADVPASARQEGCQDIATQLISNMDIDVILGGGRKYMFRMGTPDPEYPDDYSQGGTRLDGKNLVQEWLAKRQGARYVWNRTELMQASLDPSVTHLMGLFEPGDMKYEIHRDSTLDPSLMEMTEAALRLLSRNPRGFFLFVEGGRIDHGHHESRAYRALTETIMFDDAIERAGQLTSEEDTLSLVTADHSHVFSFGGYPLRGSSIFGLAPGKARDRKAYTVLLYGNGPGYVLKDGARPDVTESESGSPEYRQQSAVPLDEETHAGEDVAVFARGPQAHLVHGVQEQTFIAHVMAFAACLEPYTACDLAPPAGTTD
With B1 the “[^18F]fluoro-PEG-folate uptake, Heart, Avg” value (macrophages; [2]) was 0.117 % ID/g, the “[^18F]fluoro-PEG-folate uptake, Liver, Avg” value (macrophages; [2]) was 0.151 % ID/g and the “[^18F]fluoro-PEG-folate uptake, Lung, Avg” value (macrophages; [2]) was 0.111 % ID/g. The “[^18F]fluoro-PEG-folate uptake, Spleen, Avg” value (macrophages; [2]) was 0.779 % ID/g, the “[^18F]fluoro-PEG-folate uptake in kidney and intestine (in words)” value (macrophages; [3]) was “not impacted” and the “[^18F]fluoro-PEG-folate uptake in lung, heart, liver and spleen (in words)” value (macrophages; [3]) was “reductions”. For the same molecule, the “reduction of synovial ED1+ macrophage infiltration in arthritic knees” value [1, 4] was 2 fold, the “reduction of synovial ED2+ macrophage infiltration in arthritic knees” value [1, 4] was 3 fold and the “ED1+ synovial macrophage infiltration in arthritic knee (in words)” value [1, 5] was “mild infiltration; also recorded: very much reduced; also recorded: markedly reduced infiltration”. The “ED2+ synovial macrophages in arthritic knee (in words)” value [1, 5] was “do not show this activity; also recorded: markedly reduced infiltration”, the “lower quantification of ED1+ macrophages in arthritic knees compared to untreated rats (1× i.a.)” value [1, 6] was 4 fold and the “lower quantification of ED2+ macrophages in arthritic knees compared to untreated rats (1× i.a.)” value [1, 6] was 8 fold. For the same molecule, the “further reduction of ED1+ and ED2+ macrophage counts in arthritic knees” value ([1]; therapeutic setting, 4× AP administration) was about 8 fold, the “ED2+ synovial macrophages in arthritic knee (in words)” value ([1]; therapeutic treatment, 4× AP after first i.a. and in between boosts) was “much reduced” and the “ED1+ synovial macrophage infiltration in arthritic knee (in words)” value ([1]; therapeutic treatment, 4× after first i.a. and in between boosts, AP 700 U/kg, MTX 1 mg/kg) was “reduces ED1+ infiltration; also recorded: very much reduced”.
